Consider 32 molecules from patent US20180251563A1 (SUBDOMAIN, published 2018).

Sequences and labels used below:
B1: SEQ ID NO 184 (designed binder)
chain: MGSWYEFDDRLNAIHDRLQALGGSEAELAAFEKEIAAFESELQAYKGKGNPEVEDLRDDAAFIRRFLQAYRHN
notes: also called pb06
B2: SEQ ID NO 186 (designed binder)
chain: MGSWTEFEQRLEAIHNRLQALGGSEAELAAFEKEIAAFESELQAYKGKGNPEVEELRNDAAFIRHFLQAYRHN
B3: SEQ ID NO 183 (designed binder)
chain: MGSWKEFDDRLNAIKARLQALGGSEAELAAFEKEIAAFESELQAYKGKGNPEVEDLRDDAAFIRRFLQAYRHN
B4: SEQ ID NO 185 (designed binder)
chain: MGSWNEFKNRLDAIHKRLNALGGSEAELAAFEKEIAAFESELQAYKGKGNPEVENLRDDAAFIRHFLQAYRHN
B5: SEQ ID NO 181 (designed binder)
chain: MGSWNEFHDRLNAIHARLHALGGSEAELAAFEKEIAAFESELQAYKGKGNPEVENLRDDAAFIRRFLQAYRHN
B6: SEQ ID NO 14 (designed binder)
chain: MGSWYEFRHRLWAIDQRLYALGGSEAELAAFEKEIAAFESELQAYKGKGNPEVEGLREAAAFIRAKLQAYRHN
B7: SEQ ID NO 18 (designed binder)
chain: MGSWYEFHYRLHAIDQRLYALGGSEAELAAFEKEIAAFESELQAYKGKGNPEVEELRIKAAFIRDRLQAYRHN
B8: SEQ ID NO 13 (designed binder)
chain: MGSWVEFANRLWAIDQRLFALGGSEAELAAFEKEIAAFESELQAYKGKGNPEVEHLRDQAAFIRHKLQAYRHN
B9: SEQ ID NO 16 (designed binder)
chain: MGSWFEFNHRLWAINERLYALGGSEAELAAFEKEIAAFESELQAYKGKGNPEVERLRSMAAFIRYKLQAYRHN
B10: SEQ ID NO 12 (designed binder)
chain: MGSWVEFGHRLWAIDQRLYALGGSEAELAAFEKEIAAFESELQAYKGKGNPEVEKLRQRAAFIRFRLQAYRHN
B11: SEQ ID NO 15 (designed binder)
chain: MGSWYEFSMRLWAIDQRLYALGGSEAELAAFEKEIAAFESELQAYKGKGNPEVEALRAKAAYIRWKLQAYRHN
B12: SEQ ID NO 17 (designed binder)
chain: MGSWYEFGHRLWAIDQRLYALGGSEAELAAFEKEIAAFESELQAYKGKGNPEVEYLRETAAHIRTRLQAYRHN
B13: SEQ ID NO 21 (designed binder)
chain: MGSWTEFTYRLSAIEWRLWALGGSEAELAWFEQKIAFFEDFLQYYKGKGNPEVEALKHEAGAILNELMAYRHN
B14: SEQ ID NO 24 (designed binder)
chain: MGSWTEFYSRLEAIWVRLQALGGSEAELAMFEDRIAHFEWFLQQYKGKGNPEVEALHEEAIAIRKELAAYRHN
B15: SEQ ID NO 23 (designed binder)
chain: MGSWTEFVGRLAAIEFRLWALGGSEAELAWFEAHIAFFEDYLQWYKGKGNPEVEALREEAGAIMEELKAYRHN
B16: SEQ ID NO 20 (designed binder)
chain: MGSWYEFDLRLHAIYDRLVALGGSEAELAAFEKEIAAFESELQAYKGKGNPEVEILRDNAAYIRQMLQAYRHN
B17: SEQ ID NO 22 (designed binder)
chain: MGSWAEFDHRLHAIRERLHALGGSEAELAAFEKEIAAFESELQAYKGKGNPEVEILRGNAAYIRALLQAYRHN
B18: SEQ ID NO 38 (designed binder)
chain: MGSWTEFQSRLDAIHSRLRALGGSEAELAAFEKEIAAFESELQAYKGKGNPEVELLRDDAAFIRHFLQAYRHN
B19: SEQ ID NO 41 (designed binder)
chain: MGSWFEFQDRLTAINERLSALGGSEAELAAFEKEIAAFESELQAYKGKGNPEVETLRSDAAFIRRFLQAYRHN
B20: SEQ ID NO 40 (designed binder)
chain: MGSWYEFQNRLHAIHERLNALGGSEAELAAFEKEIAAFESELQAYKGKGNPEVELLRDDAAFIRHFLQAYRHN
B21: SEQ ID NO 39 (designed binder)
chain: MGSWQEFDDRLNAIKARLQALGGSEAELAAFEKEIAAFESELQAYKGKGNPEVEDLRDDAAFIRRFLQAYRHN
B22: SEQ ID NO 43 (designed binder)
chain: MGSWYEFNHRLDAISKRLNALGGSEAELAAFEKEIAAFESELQAYKGKGNPEVEELRGDAAFIRHFLQAYRHN
B23: SEQ ID NO 42 (designed binder)
chain: MGSWYEFESRLDAIHERLHALGGSEAELAAFEKEIAAFESELQAYKGKGNPEVENLRGDAAFIRHFLQAYRHN
B24: SEQ ID NO 44 (designed binder)
chain: MGSWFEFENRLHAIVHRLGALGGSEAELAAFEKEIAAFESELQAYKGKGNPEVETLRADAAFIRHYLQAYRHN
B25: SEQ ID NO 58 (designed binder)
chain: MGSWAEFKQRLAAIKTRLEALGGSEAELAAFLGEIWAFEMELAAYKGKGNPEVEALGREAAAIRMELQAYRHNGGGGSHHHHHH
notes: E. coli, IMAC and HPLC purified; also called His-fusion of bb10
B26: SEQ ID NO 53 (designed binder)
chain: MGSWYEFRHRLWAIDQRLYALGGSEAELAAFEKEIAAFESELQAYKGKGNPEVEGLREAAAFIRAKLQAYRHNGGGGSHHHHHH
notes: E. coli, IMAC and HPLC purified
B27: SEQ ID NO 52 (designed binder)
chain: MGSWVEFANRLWAIDQRLFALGGSEAELAAFEKEIAAFESELQAYKGKGNPEVEHLRDQAAFIRHKLQAYRHNGGGGSHHHHHH
notes: as for B26
B28: SEQ ID NO 51 (designed binder)
chain: MGSWVEFGHRLWAIDQRLYALGGSEAELAAFEKEIAAFESELQAYKGKGNPEVEKLRQRAAFIRFRLQAYRHNGGGGSHHHHHH
notes: as for B26
B29: SEQ ID NO 55 (designed binder)
chain: MGSWFEFNHRLWAINERLYALGGSEAELAAFEKEIAAFESELQAYKGKGNPEVERLRSMAAFIRYKLQAYRHNGGGGSHHHHHH
notes: as for B26
B30: SEQ ID NO 57 (designed binder)
chain: MGSWYEFHYRLHAIDQRLYALGGSEAELAAFEKEIAAFESELQAYKGKGNPEVEELRIKAAFIRDRLQAYRHNGGGGSHHHHHH
notes: as for B26
B31: SEQ ID NO 56 (designed binder)
chain: MGSWYEFGHRLWAIDQRLYALGGSEAELAAFEKEIAAFESELQAYKGKGNPEVEYLRETAAHIRTRLQAYRHNGGGGSHHHHHH
notes: as for B26
B32: SEQ ID NO 54 (designed binder)
chain: MGSWYEFSMRLWAIDQRLYALGGSEAELAAFEKEIAAFESELQAYKGKGNPEVEALRAKAAYIRWKLQAYRHNGGGGSHHHHHH
notes: as for B26

T2 sequence (Q08722 19-139 limits assumed): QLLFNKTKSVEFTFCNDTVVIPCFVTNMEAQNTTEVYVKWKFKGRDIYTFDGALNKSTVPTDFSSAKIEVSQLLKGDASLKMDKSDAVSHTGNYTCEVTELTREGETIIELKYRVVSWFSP
T1 sequence (Q07011 24-186 limits assumed): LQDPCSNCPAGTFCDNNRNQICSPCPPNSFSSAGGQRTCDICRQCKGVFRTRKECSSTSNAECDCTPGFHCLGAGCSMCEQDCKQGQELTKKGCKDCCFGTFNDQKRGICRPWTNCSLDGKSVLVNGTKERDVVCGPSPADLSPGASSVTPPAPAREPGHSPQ

One assay deals with PD-L1 (target of Example 25) (UniProt Q9NZQ7 19-238, limits assumed). Nature of the assay: library selection; assay not described.
PD-L1 (target of Example 25), sequence (Q9NZQ7 19-238 limits assumed): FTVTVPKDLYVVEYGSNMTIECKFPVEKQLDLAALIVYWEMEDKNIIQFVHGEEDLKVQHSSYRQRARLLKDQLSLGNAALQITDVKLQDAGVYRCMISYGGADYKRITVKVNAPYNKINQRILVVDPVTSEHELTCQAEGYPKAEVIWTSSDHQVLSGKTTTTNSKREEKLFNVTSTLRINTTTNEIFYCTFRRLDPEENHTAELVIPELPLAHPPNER
As to B1, the binding result is recorded as “binds”.
Consider B2, for which the binding result is “binds”.
Still for that read-out and setting: under B3 stands “binds”.
Still for that read-out and setting: the same measure for B4: “binds”.
The same measure, in the same setting: the same measure for B5: “binds”.

A further assay addresses T1, recombinant, biotinylated, Human 4-1BB/TNFRSF9/CD137-Fc (human, UniProt Q07011 24-186, biotinylated (F2NNK selection)).
T1 construct: also called 4-1BB/CD137; not shown: Fc
Description: phage ELISA, target-Fc against non-specific control. As for the experimental part: (§1) Selections were also performed using F1, F2, F3, C1 & C2 trinucleotide phosphoramidite libraries. In most cases, libraries were pooled prior to use in selection. By combining equal volumes of the individual libraries, Pool F (libraries F1, F2 and F3) and Pool C (libraries C1 and C2) were generated. These libraries were used in selections for DBDpp binders to 4-1BB/CD137 as well as a larger panel of purified recombinant “target”-Fc proteins, including CD47, CTLA4, DR5, KIR, LAG3, OX40, PD1, PD-L1 and TIM3. (Many of these targets are considered immuno-regulatory factors (Pardoll et al., Nat. Rev. Cancer 12:252-264 (2012)). After incubation of the target with the pools of DBDpp phage libraries, bound phage-target complexes were captured and separated from unbound phage with protein A beads (target proteins were Fc fusions). After three rounds of selection, rescued phage clones were screened by ELISA for binding to the selected target.
(§2) For each target, approximately 90 DBDpp phage clones were screened by ELISA for binding to the target protein and as well as a non-specific control (e.g., IgG1-Fc). […] In some instances, for the ELISA screening plate in which the majority of DBDpp clones were positive, the entire plate was sequenced.
In the case of B6, the “ELISA ratio (target to background)” value was 13 ratio.
For B7, the “ELISA ratio (target to background)” value worked out at 7.26 ratio.
Regarding B8, the “ELISA ratio (target to background)” value is 16.1 ratio.
B9: the “ELISA ratio (target to background)” value worked out at 11.9 ratio.
Regarding B10, the “ELISA ratio (target to background)” value was 20.6 ratio.
Same read-out and setting: the same measure for B11: 12 ratio; for B12: 7.71 ratio.

The next assay has as its target T2, CD47-Fc (UniProt Q08722 19-139).
T2 construct: purified recombinant target-Fc protein; not shown: Fc
The description is as above. How it is done: as §1, §2
As to B13, the “ELISA ratio (target to background)” value came out at 12.5 ratio.
B14: the “ELISA ratio (target to background)” value amounted to 4.58 ratio.
Same read-out and setting: under B15 stands 8.23 ratio; under B16, 14.1 ratio; under B17, 11.7 ratio.

The target in another assay is T3, PD-L1-Fc (UniProt Q9NZQ7 19-238).
T3 construct: purified recombinant target-Fc protein; also called FC-PD-L1; not shown: Fc
T3 sequence (Q9NZQ7 19-238 limits assumed): as above
The description is as above. As for the experimental part:
as §1, §2
In the case of B18, the “ELISA ratio (target to background)” value was 8.68 ratio.
For B19, the “ELISA ratio (target to background)” value amounted to 6.01 ratio.
The same measure, in the same setting: the same measure for B20: 6.34 ratio; for B21: 7.41 ratio.
For the molecule B22, the “ELISA ratio (target to background)” value turned out to be 2.98 ratio.
With B23, the “ELISA ratio (target to background)” value amounted to 4.88 ratio.
Regarding B24, the “ELISA ratio (target to background)” value was found to be 2.76 ratio.

The next assay concerns the target T4, CD137-Fc-His6 fusion protein.
T4 construct: Made in HEK293 cells, IMAC purified; also called CD137 target protein
Nature of the assay: biolayer interferometry (ForteBio), CD137-Fc-His6 immobilized via protein A, steady state fit. How it is done: The binding of the eight his-tagged DBDpp ligands (SEQ ID NO:51-58) to the CD137 target protein was assessed using biolayer interferometry (ForteBio, Menlo Park, Calif.) according to established methods. The binding assay was constructed by immobilizing the CD137-Fc-His6 via protein A and then incubating in solutions of each of the DBDpp ligands for 5 minutes to measure the association (binding) phase. The sensors were then placed in buffer to monitor the dissociation phase and the complete sensorgrams (time in seconds on the X-axis and nm on the Y-axis) are shown in FIGS. 12A, 12C, 12E, 12G, 12I, 12K, 12M, and 12O for DBDpps of SEQ ID Nos: 51-58, respectively. The data was fitted by steady state analysis, which is depicted in each of FIGS. […], 12F, 12H, 12J, 12L, 12N, and 12P for the corresponding DBDpp.
As to B25, the dissociation constant (Kd) was 1.7 µM. In other words, the single-digit micromolar range.
In turn, B26 registered a Kd of 0.14 µM.
B27 gave a Kd of 0.46 µM.
B28 had a Kd of 0.64 µM.
As for B29, the Kd was found to be 0.17 µM.
The molecule B30 showed a dissociation constant Kd of 1 µM.
In the case of B31, the Kd was determined as 0.77 µM.
Regarding B32, the equilibrium dissociation constant (Kd) was determined as 0.4 µM.
